Experimental data reported in patent publication US8809529B2, “Imidazo[1,2-α]pyrazine derivatives” (Promega Corporation, priority 2010, dated 2014).
Like-named read-outs stand apart in the source and are kept apart here.

Assays:
HEK293 cells [1] = assay: Toxicity of coelenterazines in HEK293 cells (CELLTITER-GLO); details: 24 hrs after compound addition
[2] = Stability of coelenterazines in reporter reagent buffer (T90); details: time for luminescent signal to decay by 10% at 22° C.; read with OgLuc variant IV lysate
HEK293 cells [3] = details: human, 24 h
L27V02 enzyme = molecular target: T1, L27V02 enzyme (Oplophorus gracilirostris, UniProt Q9GV45, A31E/A60N/A81I/F95D/I117V/K70R/L54V/L99Q/M102K/N193R/P142E/Q151K/Q38R/Q45L/V71I/Y165I); assay: Luminescence of compounds with purified L27V02 enzyme; assay type: biochemical; details: 20 μM compound, 36 pM L27V02, pH 7, 3 min
T1 construct: The N-terminus of the OgLuc variant L27V is methionine, valine and phenylalanine, i.e., MVF; made in house
Description: Compounds PBI-4525, PBI-4540 and PBI-4541 were screened for their ability to detect luminescence. […] The assay reagent was then mixed with 36 pM purified L27V02 enzyme (described in Example 25B), in DMEM without Phenol Red and 0.1% PRIONEX®. As a control, assay buffer with 20 μM PBI-3939 or PBI-4528 was used. Luminescence was measured as previously described 3 min after the assay reagent was added to the enzyme mixture.

[4] = Luminescence of OgLuc variants expressed in HEK293 cells; assay type: cell-based, human
Description: (§1) The PCR library in the pF4Ag-based non-fusion background was screened for additional variants with increased luminescence compared to 9B8 opt+K33N+170G (SEQ ID NOs: 68 and 69). Selected variants were then assayed in HEK293 and NIH3T3 cells. For each cell type, 15,000 cells were plated and grown overnight at 37° C. The next day, the cells were transfected as described in Example 25 with 10 ng pGL4.13 (Promega Corp.) as a transfection control and 100 ng of the OgLuc test DNA. The media was removed, and the cells were lysed with 100 μL of lysis buffer as described in Example 25 except the lysis buffer contained 100 mM MES pH 6.0 instead of HEPES, and luminescence measured using a GLOMAX® Luminometer.
(§2) Based on the above data, further combination variants were designed and generated (see Table 10) in the context of the pF4Ag-based non-fusion vector background without the 170G. The variants were analyzed in E. coli, HEK293 and NIH3T3 cells as described above and compared to 9B8 opt+K33N. The variants were also examined for luminescence with native coelenterazine.
(§3) The brightness of the variants expressed in HEK293 and NIH3T3 cells was measured as described previously. The luminescence of the variants was normalized to the luminescence generated by 9B8 opt (Table 27).
(§4) The variants 9B8 opt+K33N+T39T+K43R+Y68D (“V2”; SEQ ID NOs: 92 and 93), 9B8 opt+K33N+L27V+K43R+Y68D (SEQ ID NOs: 339 and 340), 9B8 opt+K33N+L27V+T39T+K43R+S66N (SEQ ID NOs: 341 and 342), and 9B8 opt+K33N+L27V+T39T+K43R+Y68D (“L27V”; SEQ ID NOs: 88 and 89) were subcloned into the Id-OgLuc-HT7 sandwich background as described above and assayed in HEK293 and NIH3T3 cells as described above. The luminescence generated by the sandwiched variants were compared to the luminescence generated by the […] sandwich (SEQ ID NOs: 59 and 60) (Table 38). The L27V sandwich (SEQ ID NOs: 90 and 91) and V2 sandwich (SEQ ID NOs: 94 and 95) had at least 1.3× fold-increase in luminescence in HEK293 and NIH3T3 cells.
(§5) The sandwich and non-sandwich versions of the variants V2, 9B8 opt+K33N+L27V+K43R+Y68D, 9B8 opt+K33N+L27V+T39T+K43R+S66N, and L27V were assayed in HEK293 and NIH3T3 cells as described in Example 37. The luminescence generated by the non-sandwiched variants was compared to the luminescence generated by the sandwiched variants (Table 39).

[5] = Luminescence of OgLuc variants expressed in NIH3T3 cells; assay type: cell-based
Description: as §1, §2, §3, §4, §5

[6] = assay type: physicochemical, E. coli; details: 60° C., assay buffer 100 mM MES pH 6.0
Description: Aliquots were removed at different time-points and placed on dry ice to freeze the samples. […] Luminescence was measured on a GLOMAX® luminometer (Promega Corp.).
The thermal stability of the variants at 60° C. was examined as described above, except the assay buffer contained 100 mM MES pH 6.0 instead of HEPES.

[7] = Brightness and relative specificity of 9B8 and 9B8 opt+K33N variants in E. coli lysates; assay type: biochemical
Description: Additional variants with improved relative specificity to novel PBI-3939 were generated as described previously by saturating amino acid positions 18, 68, 72, 75, and 90 in variant 9B8. […] Relative specificity was determined from the ratio of the luminescence of the variant with PBI-3939 to the luminescence of the variant with native coelenterazine, normalized to the ratio of corresponding luminescence of 9B8. Table 8 lists 9B8 variants (“Variant”) with at least 1.1× fold-increase in relative specificity for PBI-3939. […] 9B8 variants with amino acid substitutions K, D, F, G, Y, W, and H at position 18 had the highest fold improvement in relative specificity.
A new OgLuc library was created using 9B8opt+K33N as a starting template. The random library was created using DIVERSIFY® PCR Random Mutagenesis Kit (ClonTech; Catalog #630703). Condition 5 (as listed in the user manual) was used to generate additional variants, and the average mutation rate was calculated to be 2.6 mutations per gene by compiling sequence data from 83 randomly selected clones. This PCR library was cloned into the pF4Ag-based, non-fusion vector background described previously and the sandwich background, i.e., Id-OgLuc-HT7 (described in Example 45). Variants in the pF4Ag-base non-fusion vector background are designated with (NF). Variants in the sandwich vector background are designated with (F). In order to clone the PCR product into both vectors, an amino acid, i.e., a glycine, was appended to the variant sequence in pF4Ag, generating a new position 170 in the OgLuc variant (“170G”). The 170G is present in the sandwich construct, but in this case is considered part of the linker between OgLuc and HT7. For each library, 4,400 E. coli clones were assayed as described previously with the following exceptions. […] The assay buffer contained 100 mM MES pH 6.0 instead of HEPES, and 35 mM thiourea. The assay volumes were as follows: 10 μL cells, 40 μL lysis buffer, and 50 μL assay buffer.
as §2
E. coli lysates containing the variants were prepared and analyzed as described previously. Luminescence generated from the lysates was measured using the novel PBI-3939 and native coelenterazine as substrates. The luminescence of the variants was normalized to the luminescence generated by 9B8 opt (Table 12). The relative specificity of the variants for PBI-3939 and native coelenterazine was calculated by dividing the luminescence of the variants using PBI-3939 as a substrate with the luminescence of the variants using native coelenterazine as a substrate (Table 12).

[8] = assay type: biochemical, E. coli
Description: The signal stability of 15C1 with PBI-3945 and 9B8 with PBI-3889 was measured and compared to IV. E. coli containing plasmid DNA encoding 15C1, 9B8, or IV were grown and induced as described previously in 8-well replicates. Cells were lysed using a lysis buffer containing of 300 mM HEPES pH 8.0, 0.3× Passive Lysis Buffer (“PLB”; Promega Corp. Cat. No. E194A), 0.3 mg/mL lysozyme, and 0.003 U/μL RQ1 DNase. Lysates were diluted 1:1000 in lysis buffer and measured for luminescence using a TECAN® INFINITE® F500 luminometer. Measurements were taken immediately after the addition to 10 μL of diluted lysate sample of 50 μL of “Glo” 0.5% TERGITOL assay buffer (“0.5% TERGITOL”), which contained 150 mM KCl, 1 mM CDTA, 10 mM DTT, 100 mM thiourea, 0.5% TERGITOL® NP-9 (v/v), and 20 μM of either novel coelenterazines PBI-3945 or PBI 3889.
The signal stability of the variants was determined by re-reading the plate every 30 seconds for a length of time after the addition of the assay buffer to the sample. The signal half-life was determined from these measurements using methods known in the art. The average signal half-life was compared between the variants and IV. […] At t=10 min, luminescence for 15C1 with PBI-3945 and 9B8 with PBI-3889 were equivalent.
E. coli lysates containing the variants were prepared and analyzed as described previously except the assay buffer contained 0.25% TERGITOL® NP-9 (v/v), 100 mM MES pH 6.0, 1 mM CDTA, 150 mM KCl, 35 mM thiourea, 2 mM DTT, and 20 μM PBI-3939.

[9] = Enzyme kinetics of OgLuc variants (Km, Vmax); assay type: biochemical, E. coli; details: PBI-3939, average of three replicates
Description: Using methods known in the art, enzyme kinetic assays measuring luminescence were performed with the lysates of E. coli containing N and the IV variants 15C1, 9B8, 9F6, and 9A3. […] Two fold serial dilutions of PBI-3939 in the assay buffer described previously in Example 26 were assayed with the diluted lysates. […] Variants 9B8 and 9F6 had higher Km values compared to IV while Km values for the other variants were unchanged.
Luminescence was measured on a TECAN® INFINITE® F500 luminometer.
The enzyme kinetics values were determined for the OgLuc variants as described previously, except luminescence was measured using a GLOMAX® luminometer. Three replicates were used for each variant.

[10] = relative specificity for PBI-3939

O=c1c(Cc2ccccc2)nc2c(Cc3ccccc3)[nH]c(-c3ccccc3)cn1-2 [Coelenterazine hh, bis-deoxycoelenterazine, reference compound]
Viability (normalized to vehicle (DMSO) control) (%) (HEK293 cells [1]): 87%
Stability (pH 8) (T90 in hrs) [2]: 2.0 hrs

Oc1ccc(Cc2nc3c(Cc4ccccc4)nc(-c4ccc(O)cc4)cn3c2O)cc1 [Native coelenterazine, coelenterazine, reference compound]
Stability (pH 8) (T90 in hrs): 1.7 hrs
Viability (normalized to vehicle (DMSO) control) (%) (HEK293 cells [3]): 100%

O=c1c(Cc2cccs2)nc2c(Cc3ccccc3)[nH]c(-c3ccccc3)cn1-2 [PBI-3889, 8-benzyl-6-phenyl-2-(thiophen-2-ylmethyl)imidazo[1,2-a]pyrazin-3(7H)-one]
Stability (pH 8) (T90 in hrs): 2.9 hrs
Viability (normalized to vehicle (DMSO) control) (%) (HEK293 cells [3]): 90%

Cc1[nH]c(-c2ccccc2)cn2c(=O)c(Cc3ccc(O)cc3)nc1-2 [PBI-3896, 2-(4-hydroxybenzyl)-8-methyl-6-phenylimidazo[1,2-a]pyrazin-3(7H)-one]
Stability (pH 8) (T90 in hrs): 2.8 hrs

O=c1c(Cc2ccco2)nc2c(Cc3ccccc3)[nH]c(-c3ccc(O)cc3)cn1-2 [PBI-3945]
Viability (normalized to vehicle (DMSO) control) (%) (HEK293 cells [1]): 100%
Stability (pH 8) (T90 in hrs) [2]: 3.3 hrs

O=c1c(Cc2cccs2)nc2c(Cc3ccccc3)[nH]c(-c3ccc(O)cc3)cn1-2 [PBI-4002]
Viability (normalized to vehicle (DMSO) control) (%) (HEK293 cells [1]): 100%
Stability (pH 8) (T90 in hrs) [2]: 3.5 hrs

Cn1ccnc1Cc1nc2c(Cc3ccccc3)[nH]c(-c3ccccc3)cn-2c1=O [PBI-4525, 8-benzyl-2-((1-methyl-1H-imidazol-2-yl)methyl)-6-phenylimidazo[1,2-a]pyrazin-3(7H)-one]
RLU (L27V02 enzyme): 20,655 RLU

Cn1ccnc1CC1=NC2=C(Cc3ccccc3)NC(c3ccccc3)(c3ccc(O)cc3)CN2C1=O (stereo not drawn) [PBI-4540, 8-benzyl-6-(4-hydroxyphenyl)-2-((1-methyl-1H-imidazol-2-yl)methyl)-6-phenylimidazo[1,2-a]pyrazin-3(7H)-one]
RLU (L27V02 enzyme): 909 RLU

B1: L27V, K43R, Y68D: 9B8 opt+K33N+L27V+K43R+Y68D (protein)
chain: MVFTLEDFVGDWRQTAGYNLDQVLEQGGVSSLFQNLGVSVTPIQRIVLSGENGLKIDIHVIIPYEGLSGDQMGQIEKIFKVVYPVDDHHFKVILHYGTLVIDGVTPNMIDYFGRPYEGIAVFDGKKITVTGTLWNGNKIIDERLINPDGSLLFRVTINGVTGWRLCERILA
Fold-Decrease in Luminescence in the Presence of Sandwich Background: HEK 293 [4]: 8
Fold over 9B8 opt + K33N: HEK293 ([4]; luminescence, PBI-3939): 0.9
Increase in Luminescence: HEK293 ([4]; normalized to 9B8 opt): 1.6
Fold over Native Coelenterazine: HEK293 [4, 10]: 101
Fold-Decrease in Luminescence in the Presence of Sandwich Background: NIH 3T3 cells [5]: 22
Fold over 9B8 opt + K33N: NIH3T3 ([5]; luminescence, PBI-3939): 0.8
Increase in Luminescence: NIH3T3 ([5]; normalized to 9B8 opt): 1.5
Fold over Native Coelenterazine: NIH3T3 [5, 10]: 98
½ life hours [6]: 23.2 h
Fold over coelenterazine ([7]; bacterial lysates, PBI-3939 luminescence divided by native coelenterazine luminescence): 110
Fold over 9B8 ([7]; bacterial lysates, luminescence normalized to 9B8 opt): 1.3
fold-increase in relative specificity over 9B8 opt+K33N ([7]; in the three cell types examined): 5 ×
Fold over 9B8 opt + K33N: E. coli ([7]; luminescence, PBI-3939): 1.2
Fold over Native Coelenterazine: E. coli [7, 10]: 98.3
signal half life [8]: 2.03 h
Km [9]: 13.7 µM
Vmax [9]: 130,000,000 RLU/0.5 sec
